In patent US9803013B2, “Biological materials and uses thereof” (BioInvent International AB, priority 2005, dated 2017):

B1: B11: fully human IgG1 antibody specific for ICAM-1; VH and VL sequences of FIG. 10 (SEQ ID NOs. 6 and 8) (antibody, listed as Homo sapiens, V domains shown)
VH: EVQLLESGGGLVQPGGSLRLSCAASGFTFSNAWMSWVRQAPGKGLEWVAFIWYDGSNKYYADSVKGRFTISRDNSKNTLYLQMNSLRAEDTAVYYCARYSGWYFDYWGQGTLVTVSS
VL: QSVLTQPPSASGTPGQRVTISCTGSSSNIGAGYDVHWYQQLPGTAPKLLIYDNNNRPSGVPDRFSGSKSGTSASLAISGLRSEDEADYYCQSYDSSLSAWLFGGGTKLTVLG
B2: C11: fully human IgG1 antibody specific for surface IgM; VH and VL sequences of FIG. 11 (SEQ ID NOs. 10 and 12) (antibody, listed as Homo sapiens, V domains shown)
VH: EVQLLESGGGLVQPGGSLRLSCAASGFTFGSYEMNWVRQAPGKGLEWVSVIYSGGSTYYADSVEGRFTISRDNSKNTLYLQMNSLRAEDTAVYYCARDTNPYYYYGMDVWGQGTLVTVSS
VL: QSVLTQPPSASGTPGQRVTISCSGSSSNIGNNAVNWYQQLPGTAPKLLIYRNNQRPSGVPDRFSGSKSGTSASLAISGLRSEDEADYYCQSYDSSLNGQVFGGGTKLTVLG

Assays:
[1] = Single dose study in the rat (BI-505 pharmacokinetics); type: in vivo; conditions: for tmax: iv
From the text: AUC0-tlast=area under the serum concentration-time curve from time zero to last quantifiable concentration; AUC0-∞=area under the serum concentration-time curve from time zero to infinity; Cmax=maximum observed serum concentration; tmax=time of maximum observed serum concentration; t1/2=apparent terminal elimination half-life; CL=total serum clearance; Vss=apparent volume of distribution at steady-state; Vz=apparent volume of distribution during the terminal elimination phase. There were six animals per sex and treatment group.
Rats (n=6 per sex and treatment, for a total of 36 rats) were given 0.5, 2.5 or 10 mg/kg BI-505 as a single i.v. treatment. Blood was drawn from the caudal vein of rats at the following time-points: pre-dose, 15 min, 30 min, 1 hr, 2 hr, 8 hr, 24 hr, 2 days, 3 days, 5 days, 8 days, 2 weeks and 3 weeks. BI-505 serum concentrations were determined by ELISA from 15-18 samples per time-point, collected from alternating animals. Pharmacokinetics was calculated from the individual animal serum concentration-time data of BI-505 using non-compartmental analyses. […]

RPMI-8226 myeloma cells = test: NK-cell deficient NOD/Shi-scid/IL-2Rγ−/− mouse model; type: in vivo; conditions: RPMI-8226 grafted to NOD/Shi-scid/IL-2Rγ−/− mice
Description: (FIG. 20G) Tumor growth in BI-505 or control antibody treated NK-cell deficient NOD/Shi-scid/IL-2Rγ^−/− mice transplanted with RPMI-8226 myeloma cells. ***p<0.001.
Six-eight weeks-old female NOD/Shi-scid IL-2Rγ^−/− mice were obtained from Taconic, Denmark. Five million (5×10^6) RPMI-8226 or U266 tumor cells in 200 μL of RPMI 1640 were intravenously injected into the caudal vein (day 0). The tumor cell injection was performed 2 hr after whole body irradiation of mice (1.5 Gy, Cesium 137, IBL 637). At day 4, mice were randomized into 6 groups and treatment was initiated according to the schedule below.

PBMC = PBMC cytokine release; type: cell-based, human; conditions: immobilized (air-dried or wet coated) or in solution
Description: (FIG. 23D) Antibody-induced PBMC cytokine release. PBMC cytokine release was measured by ELISA of cell culture supernatants for IL-1β, IL-2, IL-6, IL-8, IFN-γ and TNF-α following incubation of cells in plates coated with hyper cross-linked (air-dried “A” or wet coated “W”) BI-505, isotype control, or positive control Okt-3 antibody.
(FIG. 23E) Antibody-induced cytokine release in LPS-primed PBMC. PBMC were incubated with titrated LPS and concentrations yielding submaximal cellular release of IL-1β. (100 pg/ml), IL-6 (10 pg/ml), IL-8 (10 pg/ml), and TNF-α (10 pg/ml) were determined (arrows, left panel), and used in subsequent experiments assessing antibody (BI-505 or ctrl IgG) effects on cytokine release from LPS-primed PBMC (right panel). Treatment with 100 ng/ml LPS served as positive control for robust cytokine release.
Cytokine release and T cell proliferation are thought to be common causes of mild and severe adverse reactions to antibody therapy. In order to further investigate any undesirable effects of BI-505 on ICAM-1 expressing immune cells, we therefore assessed putative effects of BI-505 on peripheral blood mononuclear cell (PBMC) cytokine release and T cell proliferation. […]
For cell culture cytokine quantifications, cells were seeded in 96-well cell culture wet and air-dried coated plates at a density of 1×10^6 cells/mL and cultured with antibodies for 24 hr. […]

[2] = tested on: carcinoma cell lines initially tested; test: IgG binding to tumour cell lines, flow cytometry; parameters: species or system human; conditions: all carcinoma cell lines initially tested
From the text: FIG. 6—Binding of B1, B11, C11 IgG, to tumour cell lines of different origin. The antigen distribution of antigens targeted by the B1, B11, and C11 antibodies on different carcinoma cell lines was investigated by flow-cytometry.
The antigen distribution of human antibody targeted antigens, mainly for B11, on different carcinoma cell lines was investigated. Cells (MCF-7 and MDA MB 435S breast carcinoma, JAR and JEG-3 chorio-carcinoma, A549 lung carcinoma, TCC-SUP urinary bladder carcinoma, MDA MB 435 melanoma, HPAC, PANC-1 and BxPC-3 pancreatic carcinoma, PC-3 and DU145 prostate carcinoma, LS174 T, CaCo2, and Lovo colorectal carcinoma, and THP-1 monocytic leukaemia cells), were washed in PBS, and resuspended at 4×10^6 cells/ml in Complete Medium (200,000 cells/50 […] sample). […] Cells were incubated with either of the antibodies for 1 hour on ice, washed by resuspension in PBS/BSA 0.5%, centrifuged at 1200 rpm for 5 min, and complete aspiration of the supernatants was undertaken. Cells were incubated with PE-conjugated Goat F(ab′)2 anti-Human IgG (Caltag Laboratories, Cat no: H10104), diluted 1/50 in PBS/BSA 0.5%, for 30 min, on ice. Following resuspension of in 300 μl PBS/BSA 0.5%, cells were analysed for IgG binding using a FACScan instrument.

Molecule | Cmax ([1]; Males, 10 mg/kg single IV) [µg/mL] | anti-BI-505 antibodies ([1]; in vivo) | half-life ([1]; in vivo) [days] | half-life corresponding in man ([1]; in vivo) | tmax ([1]; in vivo, 0.5 mg/kg) [min] | tmax ([1]; in vivo, 10 mg/kg) [min] | antitumor activity (RPMI-8226 myeloma cells) | PBMC cytokine release (PBMC) | binding [2]
B1 | 281 | no anti-BI-505 antibodies were detected | 12 to 13 | 2-3 weeks | 15 | 30 | significant antitumor activity | did not, however, induce PBMC cytokine release | 
B2 |  |  |  |  |  |  |  |  | lack of binding
